From US20240166733A1 (VERSITECH, published 2024)

Key:
Assay in all cases: ELISA, FABP coated on plate, HRP anti-mouse IgG detection, OD450
[1] = biological target: T1, human E-FABP recombinant protein (human, UniProt Q01469 1-135, limits assumed)
T1 construct: also called human epidermal-FABP
Method: (§1) The mouse or human A-FABP, E-FABP, and H-FABP recombinant proteins ([…]) were coated on 96-well plates overnight for ELISA binding assay to evaluate the reactivity and specificity of monoclonal antibodies with various FABPs. [0155] 100 μL of 6H2 (1 μg/mL) was added to the wells and incubated for 1 h at room temperature. The plates were then washed three times with phosphate-buffered saline (PBS), followed by incubation with 0.2 μg/mL HRP-conjugated-[…] H+L (Proteintech, SA00001-1, Japan) as the detection antibody at room temperature for 1 hour. After washing with PBS, TMB chromogen solution (Beyotime, P0209, China) was added for color development; 2M H₂SO₄ was added to the wells to stop the enzyme-induced color reactions; and the absorbance at 450 nm was measured with a microtiter plate reader.

[2] = biological target: T2, mouse E-FABP recombinant protein (mouse, UniProt Q05816 1-135, limits assumed)
T2 construct: also called mouse epidermal-FABP
T2 sequence (looked up): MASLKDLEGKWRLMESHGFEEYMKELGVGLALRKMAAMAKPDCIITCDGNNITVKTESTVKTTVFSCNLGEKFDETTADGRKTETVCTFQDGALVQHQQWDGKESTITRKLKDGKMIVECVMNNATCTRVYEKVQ
Method: as §1

[3] = biological target: T3, human H-FABP recombinant protein (human, UniProt P05413 1-133, limits assumed)
T3 construct: also called human heart-FABP
T3 sequence (P05413 whole entry): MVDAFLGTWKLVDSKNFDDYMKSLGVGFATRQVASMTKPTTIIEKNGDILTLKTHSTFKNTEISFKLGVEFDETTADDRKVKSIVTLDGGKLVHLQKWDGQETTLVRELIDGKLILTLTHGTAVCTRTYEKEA
Method: as §1

[4] = biological target: T4, mouse H-FABP recombinant protein (mouse, UniProt P11404 1-133, limits assumed)
T4 construct: also called mouse heart-FABP
T4 sequence (P11404 whole entry): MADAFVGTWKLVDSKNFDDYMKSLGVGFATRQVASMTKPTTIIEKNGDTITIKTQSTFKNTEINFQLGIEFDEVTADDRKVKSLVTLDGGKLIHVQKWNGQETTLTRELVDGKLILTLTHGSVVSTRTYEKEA
Method: as §1

Measured: binding result

T1 sequence (Q01469 whole entry): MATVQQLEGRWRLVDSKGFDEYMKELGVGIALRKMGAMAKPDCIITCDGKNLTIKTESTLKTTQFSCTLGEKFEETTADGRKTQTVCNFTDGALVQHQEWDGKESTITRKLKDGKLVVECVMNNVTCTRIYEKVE

B1: A-FABP neutralizing monoclonal antibody 6H2 (antibody, V domains shown)
VH: VKLQESGPELVKPGASVKIPCKASGYTFTDYNMDWVRQSRGKSLEWIGDINPYNGDTIYNQNFKGKATLTVDKSSTTAYLELRSLTSEDTAVYYCASGYGFWGQGTTVTVSS
VL: DIVMTQAPLSLPVSLGAQASISCRSSQSLVYINGNTYLHWYLQKPGQSPKLLIYKVSNRFSGVPDRFSGSGSGTDFTLKISRVEAEDLGVYFCSQSTHVPYTFGGGTKLEIK
notes: also called 6H2 mAb
no binding (tested: 6H2 at 1 µg/mL): [1] | [2] | [3] | [4]
